From patent US20260258147A1 (Merck Sharp & Dohme, published 2026)

What was measured:
[1] = biological target: T1, membrane-bound human MSLN (human, UniProt Q13421 296-598); assay: cell ELISA, CHOK1 cells expressing human MSLN
T1 construct: the assay field says which; The construct expressed in CHOK1 is not described further; also called HuMSLN-CHOK1; human mesothelin on CHOK1 cells
Protocol: (§1) The wells of a 96-well plate are seeded with sufficient cells to provide 95-100% confluency on day 0 (the day of assay). On day 0 the culture medium is removed and 50 μL/well hybridoma supernatant fraction, or purified antibody starting at 10 μg/mL or equal molar concentration and serially diluted 4 or 5-fold in CHO medium (DMEM F12, 10% Bovine serum). The plate is then incubated for an hour at room temperature or a temperature up to 37° C. Next, about 50 μL of a pre-determined concentration of ligand is added to the wells of the plate and the plate incubated for 30 minutes at room temperature or a temperature up to 37° C. The plate wells are washed with ELISA wash (PBS containing 0.05% polysorbate 20. Next, 50 μL/well of HRP-conjugated anti-species IgG diluted 1:2000 in CHO medium is added to the wells and the plate incubated for an hour at room temperature or a temperature up to 37° C. HRP conjugated anti-species IgG include goat anti-mouse IgG-HRP (Southern Biotech, cat #1030-05), goat anti-rat IgG-HRP (Southern Biotech, cat #3030-05), and goat anti-human IgG-HRP (Jackson Immunologics, cat #109-036-098). The plate wells are washed with the ELISA wash. Next, 50 μL/well TMB substrate (1 step Ultra TMB-ELISA: Thermo Fisher, Cat #34029) is added to the wells. When the blank starts to turn blue, 50 μL/well TMB stop solution (KPL, Cat #50-85-06) is added to the wells and A450-A620 is measured on an ELISA reader.
(§2) The OVACAR3 cell line is a human ovarian cancer cell line that expresses high levels of human MSLN.

[2] = biological target: T2, membrane-bound rhesus MSLN (Rhesus (Macaca mulatta)); assay: cell ELISA, CHOK1 cells expressing rhesus MSLN
T2 construct: The expressed construct is not described further; also called Rh MSLN-CHOK1; RhMSLN
T2 chain: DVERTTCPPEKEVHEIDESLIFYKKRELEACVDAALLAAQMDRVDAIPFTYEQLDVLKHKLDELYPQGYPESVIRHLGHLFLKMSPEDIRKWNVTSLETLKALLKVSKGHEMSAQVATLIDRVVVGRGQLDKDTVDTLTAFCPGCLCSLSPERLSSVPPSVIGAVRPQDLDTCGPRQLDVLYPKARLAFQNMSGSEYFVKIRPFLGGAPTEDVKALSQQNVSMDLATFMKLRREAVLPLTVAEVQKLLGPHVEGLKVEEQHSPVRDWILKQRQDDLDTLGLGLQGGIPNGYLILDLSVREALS
Protocol: as §1, §2

[3] = biological target: T1, membrane-bound human MSLN; assay: cell ELISA, OVCAR3 cells (endogenous human MSLN)
[4] = biological target: T3, soluble human MSLN (87BGR) (human, UniProt Q13421 296-598); assay: protein ELISA, coated soluble human MSLN (87BGR)
T3 construct: Purified soluble protein coated on the ELISA plate; also called HuMSLN (87BGR); purified human MSLN
Protocol: (§3) The wells of a 96-well plate are coated with 50 μL of purified human or rhesus MSLN in a carbonate coating buffer (5.3 g NaHCO₃ and 3.2 g Na₂CO₃ in 2 L H₂0) or HyClone Dulbecco's phosphate buffered saline (DPBS; Hyclone, cat #SH30028.02) at a concentration of 1-2 μg/mL and incubated overnight at 4° C. Afterwards, the plate wells are washed with well wash solution (phosphate buffered saline containing 0.05% polysorbate 20). The plate wells are then blocked by adding Super Block Blocking Buffer T20 (Thermo Scientific, #37536) for 1-2 hours at room temperature followed by washing with well wash solution. Next, 50 μL/well hybridoma supernatant fraction (used neat), or purified antibody starting at 10 μg/mL and serially diluted 4- or 5-fold in ELISA buffer (DPBS+0.1% BSA+0.05% polysorbate 20 is added to the wells. The plates are incubated for an hour at room temperature, then the wells washed with well wash solution and 50 μL/well horseradish […] (HRP) conjugated anti-species IgG diluted 1:3000-5000 in ELISA buffer is added to the wells. HRP conjugated anti-species IgG include goat anti-mouse IgG-HRP (Southern Biotech, cat #1030-05), goat anti-rat IgG-HRP (Southern Biotech, cat #3030-05), and goat anti-human IgG-HRP (Jackson Immunologics, cat #109-036-098). The plates are incubated for an hour at room temperature, then the wells washed with well wash and 50 μL/well ABTS Peroxidase Substrate (Kirkgaard & Perry Laboratories) is added to the wells. After 10 minutes the OD at 405 nm is measured using an ELISA plate reader.
as §2

[5] = biological target: T4, soluble rhesus MSLN (87BIC) (Rhesus (Macaca mulatta)); assay: protein ELISA, coated soluble rhesus MSLN (87BIC)
T4 construct: Purified soluble protein coated on the ELISA plate; also called Rh MSLN (87BIC); purified rhesus MSLN
T4 chain: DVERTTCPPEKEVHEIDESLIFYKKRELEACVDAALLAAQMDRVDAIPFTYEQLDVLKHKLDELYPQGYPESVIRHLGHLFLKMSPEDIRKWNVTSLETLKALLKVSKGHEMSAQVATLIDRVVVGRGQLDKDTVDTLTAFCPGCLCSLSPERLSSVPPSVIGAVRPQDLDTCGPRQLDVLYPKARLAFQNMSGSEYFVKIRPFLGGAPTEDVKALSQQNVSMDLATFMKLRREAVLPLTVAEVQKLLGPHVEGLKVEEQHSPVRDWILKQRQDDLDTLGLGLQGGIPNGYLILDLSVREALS
Protocol: as §3, §2

T3 sequence (Q13421 other isoform, or with tags, fused parts or gaps limits assumed, form in doubt): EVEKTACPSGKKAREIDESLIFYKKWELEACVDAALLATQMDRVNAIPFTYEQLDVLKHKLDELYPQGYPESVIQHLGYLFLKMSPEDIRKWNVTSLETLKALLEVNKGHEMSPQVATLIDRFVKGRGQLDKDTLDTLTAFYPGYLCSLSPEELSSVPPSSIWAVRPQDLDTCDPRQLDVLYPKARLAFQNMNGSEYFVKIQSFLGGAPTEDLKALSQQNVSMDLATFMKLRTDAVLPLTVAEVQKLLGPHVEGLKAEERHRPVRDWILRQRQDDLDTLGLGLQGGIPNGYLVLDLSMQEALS
T1 sequence (Q13421 other isoform, or with tags, fused parts or gaps limits assumed): as the sequence (Q13421 other isoform, or with tags, fused parts or gaps limits assumed, form in doubt) above

B1: SV018.20B12.1D1 (antibody, V domains shown)
VH: QVQLQESGPGLVKPSETLSLTCTVSGGSISSYYWSWIRQPPGKGLEWIGYIYYSGSTNYNPSLKSRVTISVDTSKNQFSLKLSSVTAADTAVYYCARTGYIPMDVWGQGTTVTVSS
VL: EIVLTQSPDFQSVTPKEKVTITCRASQSIGSNLHWYQQKPDQSPKLLIKYVSQSFSGVPSRFSGSGSGTDFTLTINSLEAEDAATYYCHQSRSLPYTFGQGTKLEIK
notes: also called antibody from hybridoma clone SV018.20B12.1D1
For B1, the EC50 [1] was 0.01 µg/mL, the binding result [2] was “no binding” and the EC50 [3] was 0.01 µg/mL. It also gave an EC50 [4] of 0.11 µg/mL.

B2: SV017.47D7.1C2 (antibody, V domains shown)
VH: EVQLVESGGGLVQPGGSLRLSCAATGFTFSSYWMHWVRQGPGKGLVWVSRINSDGTSTVYADSVKGRFTISRDNAKNTLYLQMNSLRAEDTAVYYCARGRGIMTYWGQGTLVTVSS
VL: DIQMTQSPSSLSASVGDRVTITCRASQDIGSWLTWYQRKPEKAPKSLIYAASSLQSGVPSRFSGSGSGTDFTLTISSLQPEDFATYYCQQYKSYPLTFGQGAKLEIK
notes: also called antibody from hybridoma clone SV017.47D7.1C2
For B2, the EC50 [1] was 0.03 µg/mL, the EC50 [2] was 0.26 µg/mL and the EC50 [3] was 0.01 µg/mL. It also gave an EC50 [4] of 0.03 µg/mL and an EC50 [5] of 0.01 µg/mL.

B3: SV017.51F4.1A1 (antibody, V domains shown)
VH: EVQLVESGGGLVQPGGSLRLSCAATGFTFSSYWMHWVRQGPGKGLVWVSRINSDGTSTVYADSVKGRFTISRDNAKNTLYLQMNSLRAEDTAVYYCARGRGIMTYWGQGTLVTVSS
VL: DIQMTQSPSSLSASVGDRVTITCRASQDIGSWLTWYQRKPEKAPKSLIYAASSLQSGVPSRFSGSGSGTDFTLTISSLQPEDFATYYCQQYKSYPLTFGQGAKLEIK
notes: also called antibody from hybridoma clone SV017.51F4.1A1
For B3, the EC50 [1] was 0.04 µg/mL, the EC50 [2] was 0.26 µg/mL and the EC50 [3] was 0.01 µg/mL. For the same binder, the EC50 [4] was 0.03 µg/mL and the EC50 [5] was 0.02 µg/mL.

B4: SV017.50G3.1B1 (antibody, V domains shown)
VH: EVQLVESGGGLVQPGESLRLSCAATGFTFSSYWMHWVRQGPGKGLVWVSRINSDGTSTVYADSVKGRFTISRDNAKNTLFLQMNSLRAEDTAVYYCARGRGIMTYWGQGTLVTVSS
VL: DIQMTQSPSSLSASVGDRVTITCRASQDIGSWLTWYQRKPEKAPKSLIYAASSLQSGVPSRFSGSGSGTDFTLTISSLQPEDFATYYCQQYKSYPLTFGQGAKLEIK
notes: also called antibody from hybridoma clone SV017.50G3.1B1
In the case of B4, the EC50 [1] is reported as 0.05 µg/mL, the EC50 [2] is reported as 0.33 µg/mL and the EC50 [3] is reported as 0.01 µg/mL. The EC50 [4] was 0.04 µg/mL and the EC50 [5] was 0.02 µg/mL.

B5: SV017.13B12.1E1 (antibody, V domains shown)
VH: EVQLVESGGGLVQPGGSLRLSCAATGFTFSSYWMHWVRQGPGKGLVWVSRINSDGTSTVYADSVKGRFTISRDNAKNTLHLQMNSLRAEDTAVYYCARGRGIMTYWGQGTLVTVSS
VL: DIQMTQSPSSLSASVGDRVTITCRASQDIGSWLTWYQRKPEKAPKSLIYAASSLQSGVPSRFSGSGSGTDFTLTISSLQPEDFATYYCQQYKSYPLTFGQGAKLEIK
notes: also called antibody from hybridoma clone SV017.13B12.1E1
With B5 the EC50 [1] was 0.02 µg/mL, the EC50 [2] was 0.23 µg/mL and the EC50 [3] was 0.01 µg/mL. For the same binder, the EC50 [4] was 0.04 µg/mL and the EC50 [5] was 0.02 µg/mL.

B6: SV018.45B6.1G1 (antibody, V domains shown)
VH: QVQLLQSGAEVKKPGASVKVSCKASGYTFTTYGISWVRQAPGQGLEWLGWITAYNRNTNYAQKLQGRVTMTTDTSTSTSFMVLRSLRSDDTAVYYCARVGDSDAFDIWGQGTMVTVSS
VL: EIVMTQSPATLSLSPGERATLSCRTSQSVFNSFLSWYQQKPGQAPRLLLYGTSTRATGIPARFSGSGSGTDFTLTISSLQPEDFAVYYCQQDYKLPLTFGGGTKVEIK
notes: also called SV018.45.1G1
For B6, the EC50 [1] was 0.01 µg/mL, the binding result [2] was “no binding” and the EC50 [4] was 1.37 µg/mL.
